Data from article PMC10786919, “Design-rules for stapled peptides with in vivo activity and their application to Mdm2/X antagonists” (Nature Communications, 2024).

Biological target: human Mdm2 (1-125) (human)
Assay: fluorescence polarisation; competitive fluorescence anisotropy: 250 nM Mdm2 (1-125) with 50 nM FAM-labeled 12/1 peptide, competing peptide titrated; apparent Kd from the fit with Kd1 = […]; PBS pH 7.4, 0.001% Tween-20; geometric means
Settings: not given

human Mdm2 (1-125) (human), sequence (Q00987 1-125): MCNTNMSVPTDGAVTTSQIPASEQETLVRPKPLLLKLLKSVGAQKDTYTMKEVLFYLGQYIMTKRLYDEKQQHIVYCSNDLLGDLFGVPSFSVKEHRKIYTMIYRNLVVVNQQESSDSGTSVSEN

Kd [nM]	Substance
2.5	ALRN-6924 (Sulanemadlin, MP-4897) (peptide)
7800	azide-ATSP-7041 (E5P) (peptide)
5	azide-ATSP-7041 (L1D, E5D, A8D) (MP-495) (peptide)
15	azide-ATSP-7041 (L1N, E5N, A8N, S12N, A13N, A14N) (MP-359) (peptide)
115	azide-ATSP-7041 with Cba10 substituted by Ala (peptide)
56	azide-ATSP-7041 with Cba10 substituted by Leu (peptide)

Biological target: human Mdm2 1-125 (human)
Assay: fluorescence polarisation; competitive fluorescence anisotropy: unlabelled peptide titrated against 250 nM Mdm2 (1-125) with 50 nM FAM-labelled 12/1 peptide (FAM-…-NH2); PBS pH 7.4, 0.001% Tween-20; apparent Kd, geometric means
Settings: not given

human Mdm2 1-125 (human), sequence (Q00987 1-125): as above

Kd [nM]	Substance
48.7	AZIDE-ATSP-7041 (E5A) (peptide)
38	AZIDE-ATSP-7041 (E5A,Q9A) (peptide)
30.9	AZIDE-ATSP-7041 (E5A,S12A) (peptide)
36.2	AZIDE-ATSP-7041 (E5L, A8L) (peptide)
96	AZIDE-ATSP-7041 (L1A, E5A, Q9A) (peptide)
41.7	AZIDE-ATSP-7041 (L1A,E5A) (peptide)
21.1	AZIDE-ATSP-7041 (L1A,Q9A) (peptide)
16.1	AZIDE-ATSP-7041 (L1A,S12A) (peptide)
26.5	AZIDE-ATSP-7041 (L1A,T2A) (peptide)
45.3	AZIDE-ATSP-7041 (Q9A,S12A) (peptide)
272	AZIDE-ATSP-7041 (T2A,E5A) (peptide)
79.5	AZIDE-ATSP-7041 (T2A,Q9A) (peptide)
37.1	AZIDE-ATSP-7041 (T2A,S12A) (peptide)
156	AZIDE-KK-ATSP-7041 (L1A,T2A,E5A,Q9A,S12A) (peptide)

Biological target: human Mdm2 (1-125) (human)
Assay: fluorescence polarisation; competitive fluorescence anisotropy: 250 nM Mdm2 (1-125) with 50 nM FAM-labeled 12/1 peptide, competing peptide titrated; apparent Kd from the fit with Kd1 = […]; PBS pH 7.4, 0.001% Tween-20; geometric means
Settings: not given
Remark: another data set of the same source

Kd [nM]	Substance
2.46	ALRN-6924 (Sulanemadlin, MP-4897) (peptide)

Biological target: human Mdm2 (1-125)
Assay: fluorescence anisotropy competition assay (FAM-12/1 tracer)
Settings: tested in duplicate; parent MP-081 KD = 5 nM

Substance	ratio to parent
azide-ATSP-7041 (MP-081) A8E	< 2 x (within)
azide-ATSP-7041 (MP-081) A8W	< 2 x (within)
azide-ATSP-7041 (MP-081) A13a (a = D-alanine)	< 2 x (within)
azide-ATSP-7041 (MP-081) A14E	> 2 x stronger
azide-ATSP-7041 (MP-081) A14hR (hR = homo-arginine)	< 2 x (within)
azide-ATSP-7041 (MP-081) L1E	< 2 x (within)
azide-ATSP-7041 (MP-081) L1H	< 2 x (within)
azide-ATSP-7041 (MP-081) Q9H	< 2 x (within)
azide-ATSP-7041 (MP-081) Q9K	< 2 x (within)
azide-ATSP-7041 (MP-081) S12E	> 2 x stronger
azide-ATSP-7041 (MP-081) S12H	< 2 x (within)
azide-ATSP-7041 (MP-081) S12a (a = D-alanine)	< 2 x (within)
azide-ATSP-7041 (MP-081) S12hR (hR = homo-arginine)	< 2 x (within)
azide-ATSP-7041 (MP-081) T2K	< 2 x (within)
azide-ATSP-7041 (MP-081) T2hR (hR = homo-arginine)	< 2 x (within)
azide-ATSP-7041 (MP-081) W7(6F-1-W) (6F-1-W = 6-Fluoro-1-Trp)	> 2 x stronger
azide-ATSP-7041 (MP-081) W7(DC-F) (DC-F = 3,4-Dichloro-Phe)	< 2 x (within)
azide-ATSP-7041 (MP-081) W7(TFm-F) (TFm-F = trifluoromethyl-Phe)	> 2 x stronger

Biological target: human Mdm2 1-125 (human)
Assay: fluorescence polarisation; competitive fluorescence anisotropy: unlabelled peptide titrated against 250 nM Mdm2 (1-125) with 50 nM FAM-labelled 12/1 peptide (FAM-…-NH2); PBS pH 7.4, 0.001% Tween-20; apparent Kd, geometric means
Settings: not given
Remark: another data set of the same source

Kd [nM]	Substance
8.5	AZIDE-ATSP-7041 (A8W) (peptide)
0.7	AZIDE-ATSP-7041 (A14E) (peptide)
115	AZIDE-ATSP-7041 (CBA10 TO A) (peptide)
11.5	AZIDE-ATSP-7041 (E5 TO D-ALA) (peptide)
47.7	AZIDE-ATSP-7041 (E5A) (peptide)
68.2	AZIDE-ATSP-7041 (E5G) (peptide)
7840	AZIDE-ATSP-7041 (E5P) (peptide)
98.5	AZIDE-ATSP-7041 (E5W) (peptide)
8	AZIDE-ATSP-7041 (L1 TO D-ALA) (peptide)
53.9	AZIDE-ATSP-7041 (L1A, E5A, Q9A, S12A) (peptide)
5.2	AZIDE-ATSP-7041 (L1D, E5D, A8D) (peptide)
9.5	AZIDE-ATSP-7041 (L1G) (peptide)
22.6	AZIDE-ATSP-7041 (L1P) (peptide)
9.1	AZIDE-ATSP-7041 (L1R, A8R, A13R) (peptide)
64.6	AZIDE-ATSP-7041 (L1R, Q9R, S12K) (peptide)
117	AZIDE-ATSP-7041 (L1R, Y6F, L9R) (peptide)
16.5	AZIDE-ATSP-7041 (L1W) (peptide)
371	AZIDE-ATSP-7041 (L1Y, E5Y, A8Y) (peptide)

Kd [nM]	Substance
18.5	AZIDE-ATSP-7041 (Q9 TO D-ALA) (peptide)
54.3	AZIDE-ATSP-7041 (Q9A) (peptide)
19.1	AZIDE-ATSP-7041 (Q9G) (peptide)
45.8	AZIDE-ATSP-7041 (Q9P) (peptide)
86	AZIDE-ATSP-7041 (Q9W) (peptide)
0.73	AZIDE-ATSP-7041 (S12E) (peptide)
12.4	AZIDE-ATSP-7041 (S12G) (peptide)
50.1	AZIDE-ATSP-7041 (S12P) (peptide)
48	AZIDE-ATSP-7041 (S12W) (peptide)
70.5	AZIDE-ATSP-7041 (T2 TO D-ALA) (peptide)
71.5	AZIDE-ATSP-7041 (T2V) (peptide)
204	AZIDE-ATSP-7041 (T2W) (peptide)
5.3	AZIDE-ATSP-7041 (W7 TO 3,4-DICHLORO-PHE) (peptide)
1	AZIDE-ATSP-7041 (W7 TO TRIFLUOROMETHYL-PHE) (peptide)
3.3	AZIDE-ATSP-7041 (Y6F) (peptide)
14.2	AZIDE-ATSP-7041(A13E) (peptide)
4600	AZIDE-ATSP-7041(W7A) (peptide)
2.4	NH2-EEE-AZIDE-SGS-PM2-EEE (peptide)

Biological target: human Mdm2 (1-125) (human)
Assay: fluorescence polarisation
Settings: not given

Substance	Kd [nM]
azide-ATSP-7041 (MP-081) (peptide)	5

Biological target: human Mdm2 1-125 (human)
Assay: fluorescence polarisation
Settings: not given

Substance	Kd [nM]
AZIDE-ATSP-7041 (A8 TO D-ALA) (peptide)	65.4
AZIDE-ATSP-7041 (S12A) (peptide)	36.2
AZIDE-ATSP-7041 (W7 TO 6-FLURO-1-TRP) (peptide)	1
